According to patent US20180305449A1 (ONCOMED PHARMACEUTICALS, published 2018):
Like-named read-outs stand apart in the source and are kept apart here.

Assays:
[1] = target: T1, Recombinant human DLL4-Fc (human, UniProt Q9NR61 27-522, limits assumed); assay: SPR (Biacore 2000), human DLL4-Fc amine-coupled on CM5 chip, antibody as analyte
T1 construct: also called hDLL4; hDLL4-Fc; not shown: Fc portion
Protocol: (§1) The KDs of parental antibodies anti-VEGF 219R45 (IgG format), anti-DLL4 21R79 (IgG format), anti-DLL4 21M18 (IgG format) and bispecific antibodies 219R45-MB-21M18 and 219R45-MB-21R79 were determined using a Biacore 2000 system from Biacore LifeSciences (GE Healthcare). Recombinant human DLL4-Fc or mouse DLL4-Fc proteins were immobilized on CM5 carboxyl chips using standard amine-based chemistry (NHS/EDC) and blocked with ethanolamine Recombinant human VEGF₁₆₅ or mouse VEGF₁₆₅ were biotinylated and immobilized on streptavidin chips. The antibodies were serially diluted 2-fold from 100 nM to 0.78 nM in HBS-P (0.01M HEPES pH7.4, 0.15M NaCl, 0.005% v/v Polysorbate 20). For each antibody, all 8 dilutions were sequentially injected over a specific chip. Kinetic data were collected over time and were fit using the simultaneous global fit equation to yield affinity constants (KD values) for each bispecific antibody.

[2] = target: T2, Recombinant human VEGF165 (human, UniProt P15692-4 27-191); assay: SPR (Biacore 2000), biotinylated human VEGF165 on streptavidin chip, antibody as analyte
T2 construct: also called hVEGF; hVEGF165
Protocol: as §1

[3] = target: T3, biotin-DLL4-hFc (UniProt Q9NR61 27-522, limits assumed, biotinylated (site not stated)); assay: Bispecific bridging ELISA (VEGF-coated plate, biotin-DLL4-hFc detection); ratio against 219R45-MB-21M18
T3 construct: not shown: human Fc (hFc)
Protocol: (§2) VEGF (ATGEN, South Korea) was coated onto Nunc maxisorb plates at 2 ug/ml (100 μl/well) and incubated overnight at 2-8° C. Bispecific antibodies 219R45-MB-21M18, 219R45-MB-21R79, 219R45-MB-21R75, and 219R45-MB-21R83 were diluted in blocking buffer (lx PBS, 0.1% gelatin, 0.1% Polysorbate-20, pH 7.4) containing 2 μg/ml biotin-DLL4-hFc. The antibodies were serially diluted 3-fold from 500 ng/ml to 0.008 ng/ml. The antibody samples were incubated for 2 hours in blocking buffer containing the biotin-DLL4-hFc. After incubation, the antibody samples were transferred to the VEGF-coated assay plate (100 ul/well) and incubated for 2 hours. Streptavidin-HRP (Jackson ImmunoResearch, West Grove, Pa.) was added to each well and incubated for 1 hr. TMB substrate was added to the wells with a 10 minute color development and the reaction was stopped with 2M sulfuric acid. Absorbance was read at 450-650 nm and the data analyzed using the 4-parameter fit within the Softmax Pro analysis program (Molecular Devices, Sunnyvale, Calif.).

[4] = target: T3, biotin-DLL4-hFc; assay: bispecific sandwich ELISA: antibody pre-incubated with 2 ug/ml biotin-DLL4-hFc, captured on VEGF-coated plate, detected with streptavidin-HRP
Protocol: FIG. 7. Bispecific antibody ELISA. Bispecific antibodies 219R45-MB-21M18, 219R45-MB-21R79, 219R45-MB-21R75, and 219R45-MB-21R83 were diluted in blocking buffer (lx PBS, 0.1% gelatin, 0.1% Polysorbate-20, pH 7.4) containing 2 μg/ml biotin-DLL4-hFc. The antibodies were serially diluted 3-fold from 500 ng/ml to 0.008 ng/ml. The antibody samples were incubated for 2 hours in blocking buffer containing the biotin-DLL4-hFc. After incubation, the antibody samples were transferred to a VEGF-coated assay plate (100 ul/well) and incubated for 2 hours. Streptavidin-HRP was added to each well and incubated for 1 hr. TMB substrate was added to the wells with a 10 minute color development and the reaction was stopped with 2M sulfuric acid. Absorbance was read at 450-650 nm and the data analyzed using the 4-parameter fit within the Softmax Pro analysis program.
as §2

[5] = target: T1, Recombinant human DLL4-Fc; assay: SPR (Biacore 2000), human DLL4-Fc on CM5 chip; ratio of KDs against 219R45-MB-21M18
Protocol: as §1

[6] = target: T3, biotin-DLL4-hFc; assay: Bispecific bridging ELISA: antibody pre-incubated with biotin-DLL4-hFc, captured on VEGF (ATGEN)-coated plate, streptavidin-HRP; potency relative to a reference anti-VEGF/anti-DLL4 bispecific antibody
Protocol: as §2

[7] = target: T4, Recombinant mouse VEGF165 (mouse, UniProt Q00731-2 27-190); assay: SPR (Biacore 2000), biotinylated mouse VEGF165 on streptavidin chip, antibody as analyte
T4 construct: also called mVEGF
T4 sequence (looked up): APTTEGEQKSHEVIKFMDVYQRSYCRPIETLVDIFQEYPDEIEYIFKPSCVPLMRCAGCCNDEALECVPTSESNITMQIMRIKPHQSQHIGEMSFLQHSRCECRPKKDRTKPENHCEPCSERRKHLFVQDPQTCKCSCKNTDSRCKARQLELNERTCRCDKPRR
Protocol: as §1

[8] = target: T1, Recombinant human DLL4-Fc; assay: SPR (Biacore 2000), human DLL4-Fc amine-coupled on CM5 chip, antibody as analyte; remark: listed apart in the source
Protocol: as §1
Several additional anti-DLL4 antibodies were identified that had binding affinities intermediate to the KDs of 21M18 and 21R79. Two of these anti-DLL4 antibodies were used to produce anti-VEGF/anti-DLL4 bispecific antibodies 219R45-MB-21R75 and 219R45-MB-21R83. Using the Biacore 2000 system as described above, the KDs of the bispecific antibodies 219R45-MB-21R75 and 219R45-MB-21R83 to human DLL4 were determined.

T1 sequence (Q9NR61 27-522 limits assumed): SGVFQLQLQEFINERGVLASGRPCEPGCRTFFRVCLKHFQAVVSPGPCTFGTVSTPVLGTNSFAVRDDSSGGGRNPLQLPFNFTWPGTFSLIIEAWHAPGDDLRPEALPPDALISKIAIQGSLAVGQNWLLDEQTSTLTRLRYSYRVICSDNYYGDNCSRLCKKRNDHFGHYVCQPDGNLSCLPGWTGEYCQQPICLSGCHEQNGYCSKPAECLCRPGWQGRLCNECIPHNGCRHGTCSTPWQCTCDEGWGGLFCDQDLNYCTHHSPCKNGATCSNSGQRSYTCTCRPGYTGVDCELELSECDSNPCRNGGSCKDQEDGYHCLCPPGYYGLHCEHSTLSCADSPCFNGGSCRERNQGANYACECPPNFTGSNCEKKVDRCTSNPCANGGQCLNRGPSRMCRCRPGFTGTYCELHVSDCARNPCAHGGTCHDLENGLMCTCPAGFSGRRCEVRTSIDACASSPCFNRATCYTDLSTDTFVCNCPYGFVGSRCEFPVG
T3 sequence (Q9NR61 27-522 limits assumed): as above

Kd [1]: 0.53 nM | Kd [2]: 0.68 nM | fold more potent than 219R45-MB-21M18 [3]: ~7 fold | EC50 (read off the curve) [4]: ~0.6 ng/mL | fold stronger binding than 219R45-MB-21M18 [5]: ~30 fold | Relative Potency (%) [6]: 501% | Kd [7]: 12.5 nM | Kd [8]: 0.53 nM
B1: anti-VEGF/anti-DLL4 bispecific antibody 219R45-MB-21R79 (bispecific antibody, human IgG2)
heavy 1: QVQLVQSGAEVKKPGASVKVSCKASGYTFTNYWMHWVRQAPGQGLEWMGDINPSNGRTSYKEKFKRRVTLSVDKSSSTAYMELSSLRSEDTAVYFCTIHYDDKYYPLMDYWGQGTLVTVSSASTKGPSVFPLAPCSRSTSESTAALGCLVKDYFPEPVTVSWNSGALTSGVHTFPAVLQSSGLYSLSSVVTVPSSNFGTQTYTCNVDHKPSNTKVDKTVERKCCVECPPCPAPPVAGPSVFLFPPKPKDTLMISRTPEVTCVVVDVSHEDPEVQFNWYVDGVEVHNAKTKPREEQFNSTFRVVSVLTVVHQDWLNGKEYKCKVSNKGLPAPIEKTISKTKGQPREPQVYTLPPSREKMTKNQVSLTCLVKGFYPSDIAVEWESNGQPENNYKTTPPMLKSDGSFFLYSKLTVDKSRWQQGNVFSCSVMHEALHNHYTQKSLSLSPGK
heavy 2: QVQLVQSGAEVKKPGASVKISCKASGYSFTAYYIHWVKQAPGQGLEWIGYIANYNRATNYNQKFKGRVTFTTDTSTSTAYMELRSLRSDDTAVYYCARDYDYDVGMDYWGQGTLVTVSSASTKGPSVFPLAPCSRSTSESTAALGCLVKDYFPEPVTVSWNSGALTSGVHTFPAVLQSSGLYSLSSVVTVPSSNFGTQTYTCNVDHKPSNTKVDKTVERKCCVECPPCPAPPVAGPSVFLFPPKPKDTLMISRTPEVTCVVVDVSHEDPEVQFNWYVDGVEVHNAKTKPREEQFNSTFRVVSVLTVVHQDWLNGKEYKCKVSNKGLPAPIEKTISKTKGQPREPQVYTLPPSREEMTKNQVSLTCLVEGFYPSDIAVEWESNGQPENNYKTTPPMLDSDGSFFLYSELTVDKSRWQQGNVFSCSVMHEALHNHYTQKSLSLSPGK
light: DIVMTQSPDSLAVSLGERATISCRASESVDNYGISFMKWFQQKPGQPPKLLIYAASNQGSGVPDRFSGSGSGTDFTLTISSLQAEDVAVYYCQQSKEVPWTFGGGTKVEIKRTVAAPSVIFPPSDEQLKSGTASVVCLLNNFYPREAKVQWKVDNALQSGNSQESVTEQDSKDSTYSLSSTLTLSKADYEKHKVYACEVTHQGLSSPVTKSFNRGEC
notes: Monovalent/bispecific IgG2 heterodimer with charge-modified CH3 domains and two identical light chains
